Substitutions are numbered along the chain they refer to. Blank lines part the entries; values can stand above or below the binder they belong to.
Molecular target: T1, recombinant human Ang-2 (human, UniProt O15123 19-496, limits assumed)
T1 construct: also called hAng-2; human angiopoietin-2
T1 sequence (looked up): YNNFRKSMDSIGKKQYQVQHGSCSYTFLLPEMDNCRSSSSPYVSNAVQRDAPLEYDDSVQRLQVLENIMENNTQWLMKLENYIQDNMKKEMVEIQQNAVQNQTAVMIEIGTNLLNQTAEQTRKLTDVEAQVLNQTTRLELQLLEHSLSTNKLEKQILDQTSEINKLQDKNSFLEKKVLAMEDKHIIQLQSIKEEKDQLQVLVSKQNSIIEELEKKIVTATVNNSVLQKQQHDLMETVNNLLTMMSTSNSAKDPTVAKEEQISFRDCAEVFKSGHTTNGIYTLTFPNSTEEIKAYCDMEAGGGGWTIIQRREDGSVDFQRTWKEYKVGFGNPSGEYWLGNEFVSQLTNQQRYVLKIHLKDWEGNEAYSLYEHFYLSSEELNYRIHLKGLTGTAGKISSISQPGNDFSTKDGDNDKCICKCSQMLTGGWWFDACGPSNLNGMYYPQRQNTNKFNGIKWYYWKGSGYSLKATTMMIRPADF
Experiment: ELISA, recombinant human Ang-2 coated, detection with anti-human IgG Fc-HRP or anti-lipocalin-HRP, signal normalised (RU %)
Method: Bound agents under study were detected via an anti-human-IgG-Fc antibody or anti-lipocalin antibody as described in Example 3. The data was fit with a 1:1 binding model with EC50 value and the maximum signal as free parameters, and a slope that was fixed to unity.
The target was dissolved in PBS (5 μg/mL) and coated overnight on microtiter plates at 4° C. The plate was washed after each incubation step with 80 μL PBS-T five times. The plates were blocked with 2% BSA (w/v) in PBS for 1 h at room temperature and subsequently washed. […] Bound agents under study were detected after incubation for 1 h at room temperature with 1:1000 diluted anti-lipocalin antibody conjugated to HRP in PBS-T or 1:5000 diluted anti-human IgG Fc-HRP (#109-035-098, Jackson […]) in PBS-T. After an additional wash step, fluorogenic HRP substrate (QuantaBlu, Thermo) was added to each well and the fluorescence intensity was detected using a fluorescence microplate reader.

EC50 (read off the curve): ~0.4 nM
B1: lipocalin mutein of SEQ ID NO: 2 (designed binder)
chain: QDSTSDLIPAPPLSKVPLQQNFQDNQFHGKWYVVGQAGNYILREDKDPGKMWATIYELKEDKSYDVTEVSFGAKKCNYRIWTFVPGSQPGEFTLGGIKSDPGGTSTLVRVVSTNYNQHAMVFFKHVLQNREFFEITLYGRTKELTSELKENFIRFSKSLGLPENHIVFPVPIDQCIDG
notes: hNGAL mutein specific for Ang-2, tested in monomeric form; also called positive control lipocalin mutein; Ang-2-specific lipocalin mutein in monomeric form

EC50 (read off the curve): ~0.6 nM
B2: lipocalin mutein of SEQ ID NO: 3 (designed binder)
chain: B1 chain with Q36H, A73P, D100P
notes: as for B1

binding result: no binding (tested: 100 nM)
B3: SEQ ID NO: 1 negative control (other)
chain: QDSTSDLIPAPPLSKVPLQQNFQDNQFQGKWYVVGLAGNAILREDKDPQKMYATIYELKEDKSYNVTSVLFRKKKCDYWIRTFVPGCQPGEFTLGNIKSYPGLTSYLVRVVSTNYNQHAMVFFKKVSQNREYFKITLYGRTKELTSELKENFIRFSKSLGLPENHIVFPVPIDQCIDG
notes: Lipocalin negative control; also called mature hNGAL
